For 167 variants, self-cleavage results are on record in the RNAGym collection of RNA variant scans (doi:10.7554/elife.80360).

B1: HDV Ribozyme (parent)
chain: GGCCGGCAUGGUCCCAGCCUCCUCGCUGGCGCCGGCUGGGCAACAUUCCGAGGGGACCGUCCCCUCGGUAAUGGCGAAUGGGACCCA

The variants in the series derive from B1. Description: self-cleavage, relative activity (ratio to wild type); higher = more cleavage; co-transcriptional.
U37G G68U: the self-cleavage was found to be 0.128.
Turning to U9C G81U, the self-cleavage is 0.237.
On to A43G G59U, for which the self-cleavage amounted to 0.601.
Consider U37C A56U, for which the self-cleavage was determined as 1.09.
For the variant C4G C63G, the self-cleavage worked out at 0.0396.
Regarding C4G C63A, the self-cleavage was determined as 0.177.
As to C18A C49U, the self-cleavage came out at 0.133.
In the case of C33A A78G, the self-cleavage is 0.161.
For the variant C32A U60G, the self-cleavage came to 0.138.
Consider G29A U72A, for which the self-cleavage was determined as 0.122.
Regarding G1A C15G, the self-cleavage turned out to be 0.
With G6A C26G, the self-cleavage worked out at 0.856.
On to C58A C61A, for which the self-cleavage is 1.23.
Take G17U G73C: the self-cleavage was found to be 0.145.
The same measure for G59A A70U: 0.941; for C41G G80C: 0.164; for G5U C84U: 0.219.
Regarding G68C C86U, the self-cleavage turned out to be 0.997.
For the variant G11C C36A, the self-cleavage came to 0.0536.
For U46G G80U the value was 0.202; for G53U A87C, 0.984.
For G73A G74C, the self-cleavage came to 0.176.
Consider C15A G50A, for which the self-cleavage stood at 0.527.
Turning to A78G G81U, the self-cleavage was 0.185.
Regarding G40C G82U, the self-cleavage is 0.0978.
As to C4U A71C, the self-cleavage worked out at 0.499.
For G54C A70G the value was 1.07; for C36U G76C, 0.909.
Take C64A A83C: the self-cleavage came to 0.332.
Regarding G11A U20G, the self-cleavage came to 0.0326.
As for G40C C84U, the self-cleavage came to 0.0852.
As to C49G G67A, the self-cleavage amounted to 0.637.
C24U U60G: the self-cleavage turned out to be 0.573.
Regarding G6C C7G, the self-cleavage came to 0.475.
As to C33G A78U, the self-cleavage is 0.0875.
The same measure for C58A U65C: 1.19.
The same measure for U20G C41U: 0.287.
Turning to A45C C64A, the self-cleavage is 0.426.
As for G11U U47C, the self-cleavage was found to be 0.156.
The same measure for C4G C85U: 0.306; for A71C G82A: 0.111; for G11A G55C: 0.396.
The same measure for C26A G52U: 0.798; for C30U G59C: 0.67; for G5U A42G: 0.249.
Take C33G C84G: the self-cleavage is 0.0489.
For G28A C62G, the self-cleavage came out at 0.111.
In the case of C14G G40A, the self-cleavage is 0.623.
On to A8U C19U, for which the self-cleavage turned out to be 0.0308.
Turning to U12A C18A, the self-cleavage turned out to be 0.0604.
Turning to A43U G82U, the self-cleavage was determined as 0.0923.
Turning to A83U A87G, the self-cleavage was determined as 0.531.
On to U20G G52A, for which the self-cleavage worked out at 0.499.
Consider C33U C85A, for which the self-cleavage was 0.831.
For U23A C62A the value was 0.872; for A56G A70U, 1.1.
On to U69G U79A, for which the self-cleavage is 0.935.
For G25A C64A the value was 0.115.
On to C36U U60G, for which the self-cleavage was 0.508.
With C30G C57G, the self-cleavage is 0.208.
As for C44U, the self-cleavage came out at 0.803.
The same measure for C30U C66G: 0.607; for C18G U27G: 0.128; for C57G U60G: 0.95.
Turning to G53U G73A, the self-cleavage was found to be 0.831.
Regarding G76A G80U, the self-cleavage turned out to be 0.441.
For the variant U9A C13U, the self-cleavage was found to be 1.36.
Take G39U A56U: the self-cleavage turned out to be 0.819.
With G2A U47A, the self-cleavage is 0.0314.
Take C57A U79C: the self-cleavage stood at 0.429.
The same measure for C58G A83C: 0.386.
C22G C58G: the self-cleavage amounted to 0.
Turning to G1A C48U, the self-cleavage is 0.
For G54A C84G the value was 0.462.
In the case of G54A C84U, the self-cleavage was found to be 0.563.
Turning to G34A A43U, the self-cleavage is 0.
In the case of C3U C64U, the self-cleavage came to 0.954.
For U9A C84A the value was 0.886.
For U65G U69G the value was 0.942; for C24U C61U, 0.718; for C13A C33U, 0.369.
U72G A78U: the self-cleavage was 0.356.
For the variant G67C G80C, the self-cleavage came to 0.189.
Consider G6C A16U, for which the self-cleavage is 0.199.
Consider G6A C19G, for which the self-cleavage turned out to be 0.
As for G11U G35A, the self-cleavage was determined as 0.241.
For G25C G38A, the self-cleavage came out at 0.259.
The same measure for U27G G40A: 0.889.
With G28A C49U, the self-cleavage amounted to 0.0683.
On to C33G C61A, for which the self-cleavage was determined as 0.193.
The same measure for U72C A87U: 0.595; for G53C A78U: 0.525; for G31U C84A: 0.146.
The same measure for A8G U46C: 0.782; for A51G U79G: 0.831.
C15U A42U: the self-cleavage was determined as 0.322.
In the case of C63G U72A, the self-cleavage stood at 0.458.
Turning to G6C C66A, the self-cleavage amounted to 0.201.
Take C32U G54C: the self-cleavage was 0.992.
In the case of C64U A70G, the self-cleavage was determined as 0.701.
Turning to C44U G80C, the self-cleavage was found to be 0.242.
For C26G C49U, the self-cleavage came to 0.935.
Consider A45C C58G, for which the self-cleavage was determined as 0.724.
As to A70C C84A, the self-cleavage stood at 0.646.
For U20A, the self-cleavage came to 0.0723.
For G28A U60G the value was 0.0386.
On to C19U C58G, for which the self-cleavage was found to be 0.0959.
For the variant C22A G31C, the self-cleavage is 0.
For G28A A42G, the self-cleavage came out at 0.369.
With C75A G80U, the self-cleavage is 0.118.
On to C48G G50C, for which the self-cleavage turned out to be 0.939.
For the variant G39C A78U, the self-cleavage was found to be 0.131.
For G17C U79A the value was 0.26; for C41A U79G, 0.858.
In the case of C24U G82U, the self-cleavage is 0.0692.
For G1U A45C the value was 0.453; for G54A G82C, 0.282; for C13U C44U, 0.185.
Regarding G1A A51G, the self-cleavage is 0.
On to U12G G54U, for which the self-cleavage was 0.793.
Consider C33U A42C, for which the self-cleavage was 0.259.
For G17A G74U the value was 0.197; for G5C G6C, 0.151; for G39C A51G, 0.38.
On to G35U G52U, for which the self-cleavage came out at 0.459.
As for U65A A71C, the self-cleavage came to 0.767.
For the variant A45G C49U, the self-cleavage came to 1.24.
With U47A A87G, the self-cleavage is 0.96.
Turning to G54A G74C, the self-cleavage came to 0.194.
G40U C62U: the self-cleavage worked out at 0.872.
For G38A A87C the value was 0.0881; for C57U G68A, 1.02; for G52U A56C, 0.815.
Turning to C3A U60C, the self-cleavage is 0.499.
For the variant U27G C57A, the self-cleavage is 1.22.
With G29C A45G, the self-cleavage turned out to be 0.
G25C A77C: the self-cleavage was 0.104.
Consider C4U C75G, for which the self-cleavage is 0.122.
For the variant A42C C63G, the self-cleavage was found to be 0.208.
The same measure for C63A G74A: 0.478; for G50U G82C: 0.435; for C63U G68C: 0.941.
In the case of G2C A70G, the self-cleavage is 0.
The same measure for U12G U72A: 0.525; for U46G C86A: 0.684; for G6U G50C: 0.776.
On to C4A A45U, for which the self-cleavage stood at 0.095.
For G55U G82U the value was 0.426.
For the variant G40C G67C, the self-cleavage was found to be 0.439.
With C15A U65C, the self-cleavage came to 0.519.
With U23A G31U, the self-cleavage came out at 0.271.
Regarding A16U, the self-cleavage was 0.984.
Turning to U12C C14A, the self-cleavage came to 0.18.
For U47C A51C the value was 0.776; for G68C G82A, 0.237.
On to U47A G73C, for which the self-cleavage turned out to be 0.665.
On to G1U U20G, for which the self-cleavage was found to be 0.285.
In the case of C21U, the self-cleavage came to 0.251.
Consider C4A G53U, for which the self-cleavage was 0.174.
The same measure for C14A G35A: 0.0426; for C15G C58U: 0.482; for G73C A83G: 0.17.
As for C7G G55C, the self-cleavage was determined as 0.214.
With G25A G55A, the self-cleavage was 0.193.
A45U C58U: the self-cleavage was 0.849.
In the case of G2C A8U, the self-cleavage is 0.
For the variant G6A C48U, the self-cleavage came out at 0.759.
